Laboratory results published in patent US20210292396A1.

Tests used:
Assay in all cases: cell-based or functional assay
[1] = target: Env of HIV isolate R3265.c6 (clade AE) (HIV)
[2] = target: Env of HIV isolate 6405.v4.c34 (clade D) (HIV)
[3] = target: Env of HIV isolate 57128.vrc15 (clade D) (HIV)
[4] = target: HIV Env of isolate CNE58 (HIV)
[5] = target: Env of HIV isolate UG021.16 (clade D) (HIV)
[6] = target: Env of HIV isolate 3365.v2.c20 (clade A) (HIV)
[7] = target: HIV Env of isolate DU156.12 (HIV)
[8] = target: HIV Env of isolate 57128.vrc15 (HIV)
[9] = target: Env of HIV isolate CNE5 (clade AE) (HIV)
[10] = target: Env of HIV isolate 3718.v3.c11 (clade A) (HIV)
[11] = target: Env of HIV isolate BL01.DG (clade B) (HIV)
[12] = target: Env of HIV isolate 263-8 (clade AG) (HIV)
[13] = target: HIV Env of isolate 426c (HIV)
[14] = target: Env of HIV isolate RW020.2 (clade A) (HIV)
[15] = target: HIV Env of isolate 3337.v2.c6 (HIV)
[16] = target: Env of HIV isolate 7165.18 (clade B) (HIV)
[17] = target: HIV Env of isolate 6471.v1.c16 (HIV)
[18] = target: Env of HIV isolate HO86.8 (clade B) (HIV)
[19] = target: HIV Env of isolate DU422.01 (HIV)
[20] = target: Env of HIV isolate C3347.c11 (clade AE) (HIV)
[21] = target: Env of HIV isolate BR025.9 (clade C) (HIV)
[22] = target: Env of HIV isolate 269-12 (clade AG) (HIV)
[23] = target: Env of HIV isolate 191821.E6.1 (clade D) (HIV)
[24] = target: Env of HIV isolate DU123.06 (clade C) (HIV)
[25] = target: Envelope protein of SVA.MLV (clade NA)
[26] = target: Env of HIV isolate CAP256.206.C9 (clade C) (HIV)
[27] = target: Env of HIV isolate 6535.3 (clade B) (HIV)
[28] = target: HIV Env of isolate P0402.c2.11 (HIV)
[29] = target: Env of HIV isolate 0077.v1.c16 (clade C) (HIV)
[30] = target: Env of HIV isolate CNE12 (clade B) (HIV)
[31] = target: Env of HIV isolate Q259.17 (clade A) (HIV)
[32] = target: HIV Env of isolate CNE21 (HIV)
[33] = target: Env of HIV isolate MW965.26 (clade C) (HIV)
[34] = target: Env of HIV isolate BX08.16 (clade B) (HIV)
[35] = target: Env of HIV isolate 6095.v1.c10 (clade ACD) (HIV)
[36] = target: Env of HIV isolate BJOX025000.01.1 (clade AE) (HIV)
[37] = target: Env of HIV isolate CE703010217.B6 (clade C) (HIV)
[38] = target: Env of HIV isolate 242-14 (clade AG) (HIV)
[39] = target: Env of HIV isolate Ce1176.A3 (clade C) (HIV)
[40] = target: Env of HIV isolate TV1.29 (clade C) (HIV)
[41] = target: HIV Env of isolate BR025.9 (HIV)
[42] = target: Env of HIV isolate CNE3 (clade AE) (HIV)
[43] = target: Env of HIV isolate BG1168.01 (clade B) (HIV)
[44] = target: Env of HIV isolate 16936-2.21 (clade C) (HIV)
[45] = target: HIV Env of isolate P1981.C5.3 (HIV)
[46] = target: HIV Env of isolate SO18.18 (HIV)
[47] = target: Env of HIV isolate QH0515.01 (clade B) (HIV)
[48] = target: Env of HIV isolate 398-F1.F6.20 (clade A) (HIV)
[49] = target: Env of HIV isolate CH070.1 (clade BC) (HIV)
[50] = target: Env of HIV isolate ZM53.12 (clade C) (HIV)

B1: ePGT121.15 (ePGT121.15.H6 VH and ePGT121.15.L1 VL) (antibody, V domains shown)
VH: QMQLQESGPGLVKPGETLSLTCSVSGASISSSYWSWLRETPGKGLEWIGYTHHSGDTNYAPSLKSRVHLGLHPSKNQVSLSLTSVTAADTAVYYCARTLHGRRIYGVVAFNEFFTYFYWEVWGKGTQVTVSS
VL: SDISVAPGETVRISCGGESIGSRAVQWYQHRAGQAPKLIIYNNQDRPPGIPERFSGSPDIDFGTTATLTITNVEAGDEATYYCHIWDSRRPTNWVFGGGTTLTVL
[1]
  IC50, pseudovirus neutralization: > 50000 ng/mL
[2]
  IC50, pseudovirus neutralization: 3 ng/mL
[3]
  IC50, pseudovirus neutralization: 7 ng/mL
[4]
  IC80, pseudovirus neutralization: 75 ng/mL
[5]
  IC50, pseudovirus neutralization: 6 ng/mL
[6]
  IC50, pseudovirus neutralization: 6 ng/mL
[7]
  IC80, pseudovirus neutralization: 5 ng/mL
[8]
  IC80, pseudovirus neutralization: 26 ng/mL
[9]
  IC50, pseudovirus neutralization: > 50000 ng/mL
[10]
  IC50, pseudovirus neutralization: 489 ng/mL
[11]
  IC50, pseudovirus neutralization: 13100 ng/mL
[12]
  IC50, pseudovirus neutralization: 14 ng/mL
[13]
  IC80, pseudovirus neutralization: 1380 ng/mL
[14]
  IC50, pseudovirus neutralization: 3 ng/mL
[15]
  IC80, pseudovirus neutralization: 2630 ng/mL
[16]
  IC50, pseudovirus neutralization: 3 ng/mL
[17]
  IC80, pseudovirus neutralization: 6350 ng/mL
[18]
  IC50, pseudovirus neutralization: > 50000 ng/mL
[19]
  IC80, pseudovirus neutralization: 22 ng/mL
[20]
  IC50, pseudovirus neutralization: > 50000 ng/mL
[21]
  IC50, pseudovirus neutralization: 2 ng/mL
[22]
  IC50, pseudovirus neutralization: 11 ng/mL
[23]
  IC50, pseudovirus neutralization: 249 ng/mL
[24]
  IC50, pseudovirus neutralization: 3 ng/mL
[25]
  IC50, pseudovirus neutralization: > 50000 ng/mL
[26]
  IC50, pseudovirus neutralization: 3 ng/mL
[27]
  IC50, pseudovirus neutralization: 0.7 ng/mL
[28]
  IC80, pseudovirus neutralization: 7 ng/mL
[29]
  IC50, pseudovirus neutralization: > 50000 ng/mL
[30]
  IC50, pseudovirus neutralization: 3 ng/mL
[31]
  IC50, pseudovirus neutralization: > 50000 ng/mL
[32]
  IC80, pseudovirus neutralization: 4 ng/mL
[33]
  IC50, pseudovirus neutralization: 4 ng/mL
[34]
  IC50, pseudovirus neutralization: 4 ng/mL
[35]
  IC50, pseudovirus neutralization: 19 ng/mL
[36]
  IC50, pseudovirus neutralization: > 50000 ng/mL
[37]
  IC50, pseudovirus neutralization: 4 ng/mL
[38]
  IC50, pseudovirus neutralization: 42800 ng/mL
[39]
  IC50, pseudovirus neutralization: 3 ng/mL
[40]
  IC50, pseudovirus neutralization: 4 ng/mL
[41]
  IC80, pseudovirus neutralization: 6 ng/mL
[42]
  IC50, pseudovirus neutralization: > 50000 ng/mL
[43]
  IC50, pseudovirus neutralization: > 50000 ng/mL
[44]
  IC50, pseudovirus neutralization: 3 ng/mL
[45]
  IC80, pseudovirus neutralization: 5 ng/mL
[46]
  IC80, pseudovirus neutralization: 9 ng/mL
[47]
  IC50, pseudovirus neutralization: 14 ng/mL
[48]
  IC50, pseudovirus neutralization: 4 ng/mL
[49]
  IC50, pseudovirus neutralization: 1 ng/mL
[50]
  IC50, pseudovirus neutralization: 8 ng/mL
